The values below come from patent US20040087013, “Stable macroscopic membranes formed by self-assembly of amphiphilic peptides and uses therefor” (published 2004).

For this data set, the target named is T1, zuotin (ZUO1), yeast-purified fractions (Saccharomyces cerevisiae, UniProt P32527 SEQ:1-433).
T1 sequence: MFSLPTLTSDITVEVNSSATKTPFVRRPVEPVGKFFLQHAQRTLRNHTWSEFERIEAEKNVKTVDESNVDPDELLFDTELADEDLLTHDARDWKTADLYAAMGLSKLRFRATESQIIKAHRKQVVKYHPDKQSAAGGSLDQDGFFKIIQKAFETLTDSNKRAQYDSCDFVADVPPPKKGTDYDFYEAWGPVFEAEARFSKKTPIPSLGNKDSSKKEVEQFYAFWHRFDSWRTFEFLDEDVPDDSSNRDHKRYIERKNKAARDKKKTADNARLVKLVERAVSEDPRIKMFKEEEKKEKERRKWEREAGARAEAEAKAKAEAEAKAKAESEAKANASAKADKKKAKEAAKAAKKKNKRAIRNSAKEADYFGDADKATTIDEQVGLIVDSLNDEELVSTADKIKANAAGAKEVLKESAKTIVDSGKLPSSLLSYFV
The experiment in a line: EMSA; fraction FI; 2000-fold excess salmon sperm DNA. To be noted: tags: none; label: 32P; left-handed Z-DNA, 44mer alternating dG-Br5dC. A general note: A gel shift assay detects complexes by their altered migration in electrophoresis.

Excerpt: In order to determine if these band shifts were the result of authentic Z-DNA binding, negatively supercoiled plasmids of pUC19 and pUC19(GC) were used as competitor DNAs in gel retardation competition assays.
A gel retardation assay was employed to detect proteins with affinity to left-handed Z-DNA. In these assays, two kinds of left-handed DNA probes were used. […] The other probe was derived from a synthetic 44mer oligo(dG-Br⁵dC)₂₂, labelled using Klenow polymerase with [α-³²P]dGTP, and stabilized in the Z-DNA conformation by 10 mM MgCl₂, or 0.1 mM Co(NH₃)₆³⁺. […] In the competition assays, supercoiled pUC19 and pUC19(CG) were added to the reaction samples separately. […] After electrophoresis, the gel was dried and exposed to X-ray film.

B1: oligo (dG-Br5dC)22 Z-form (dsDNA)
DNA 1: GCGCGCGCGCGCGCGCGCGCGCGCGCGCGCGCGCGCGCGCGCGC
DNA 2: B1 DNA 1
modifications: 5-bromo-dC at all C [5-bromo-dC at all C (2,4,6,8,10,12,14,16,18,20,22,24,26,28,30,32,34,36,38,40,42,44 of each strand)]
For B1, the binding result was “binds”.
